The source of these data is article PMC9628480, “Discovery and structural characterization of chicoric acid as a SARS-CoV-2 nucleocapsid protein ligand and RNA binding disruptor”.

One may read the Kd as the equilibrium constant for the complex coming apart.

The target in this series is SARS-CoV-2 nucleocapsid (N) protein, full-length (SARS-CoV-2 (protein amplified from …, UniProt A0A6B9VLF5 1-419)). Put plainly: fluorescence polarization. Conditions: protein: recombinant; tags: 6xHis (pET28a-TEV), not cleaved; chain copies: 2; label: 5'-FITC; hairpin. On the technique in general: In fluorescence polarisation assays a small probe gives low polarisation when free and higher when bound to something large.

For CACUCACUGUCAAAAAAGAUGGUAGAGU (structured_RNA) [RNA2 (UUUUUU to AAAAAA)], the Kd was determined as 498 ± 43.2 nM.
